Here are results for seven sequences from a protein production outcome set (Wang et al. 2014).

A short description of this data set: label from the status in PepcDB records.

With “MMYTNDNRIVMTLDAGGTNFVFSAIQGGKEIADPVVLPACADCLDKCLGNLVEGFKAIQAGLPEAPVAISFAFPGPADYQAGIIGDLPNFPSFRGGVALGPFLEDIFGIPVFINNDGSLFAYGEALTGVLPEINRRLREAGSTKRYKNLLGVTLGTGFGAGVVIDGELLRGDNAAGGYVWCLRNKKYPEYIVEESVSIRAVMRVYAERSGDAGARTPKEIFEIAEGIRPGNREAAIAAFEELGEMAGDALASAITLIDGLIVIGGGLSGASKYILPVLLKEMNAQTGMMDGARFGRLQKEVYDLDEEKSFAGFARGEAVEVLVPGTNRKVGYDPCKRIGVTFSKQGANRSIAMGAYVFALNHLSK”, the protein production result is “not failed”.

Take “MNADEFVEAFNNAKDLTELELLAELGKSISDDLEGHEKGKVLGTLGNIYYALHRLKEAEEAYLEALNVYLKLSEEDEGFLPYVVGCLYNLGNLYQVSRKFAEAEKAYTDALKVLGDVRNDQRLAILTALGTMYAKLDMKEHAERCLVEAFEMAKVKGDARLLGTLLNNLAVVYQRGGRKREAAMLLKMALDALERVGEDLGIAAVLQNLLPYLDEDELRRVMERLESFGELPIDLKAKIAYFKARRAEEKGEDSAKHYMEAACLGFMAYRNFGFQSINFMHCLDKVIESDSELREDAVVLKKVILKYYYGSQKVEIDFDSRVGRMIKAVLEGDDIYEDGILEDTVRLIAEDLLKAGTKV”: the protein production result is listed as “failed”.

Consider “MNADGWLADTRSSYDTVAVSYADQLRGALAGTPYLRAALELFAGMIHTAGGGPVADVGCGPGHVTAHLHGLGVDAFGIDLSPAMIDVARRDHPDLRFEVGSMTDLNLADASVTALLAFWSLIHVPDDAIPAVFGHFRRVVRPGGPLLLGFHIGDESRLKTEGYGGHPMKVHVHHRQPVQVTAWLRDAGFTVEAQWLLGLDGHIPGAVLFAHRQSLEHHHHHH”, for which the protein production result is “failed”.

As to “MNAHRAQLISLARPVYFSLLASVAAGIINTVWVSRLGGPAVAAVAVATNTENVLLGVALVFASGTTVLVAHARGAQDPGAVRAAVRGGWALCAVVTPVVAGCGYLLREPLARLVLGGEGPALPLAVGYFAISLPGITVFYAQNLVDGILKGAGDTRTPMRLALLANGLILALDPLLIHRYGVRGAAVSTVLCRCAALGVGLLALRRNALLRGAAAVRPAEATGAALRRTLSTGLPMSADFTVRQGGALVLVAIVARLGVTAVAAYSIAYKVMYVATMAFYAVRQAASIHTAHTRGADRRASSRSAGAGSGGERRAIGRQAVVVSGTVGLLASALLCVLAPWVMRAFGAGPEVAHQGVLFLRCVGPYLLLMACFIALGGVFEGSGGAPVLLRVTLLGTAVQLPLAYALSGLGLPGICLALALAMVVQCAALLPGVRRQEDARDSLVRVA”, the protein production result is listed as “failed”.

Regarding “MNAIVEPRRAQPTDSDAILNALPNPVLLVGPDGKIVDANMAAESFFEISTQLLRRQSLTDLVPFGSPLLALIEQVRVGHSPVNEYKVDLGTPRIGADRQVDLHVAPLNERPGHIVVMLQERTIADKMDRQLTHRSAARSVIALAAMLAHEIKNPLSGIRGAAQLLEQQASAEDRMLTRLICDEADRIVTLVDRMEVFGDDRPVARGPVNIHSVLDHVKRLAQSGFARNIKFIEDYDPSLPPVLANQDQLIQVFLNLVKNAAEAVVDLGSDGEIQLTTAFRPGVRLSVPGKKTRVSLPLEFCVRDNGPGVPEDLLPNLFDPFVTTKPSGSGLGLALVAKIVGDHGGIIECESQPRKTTFRVLMPMFNTAKALQSPNGEDAPASSDASQTAR”, the protein production entry is listed as “failed”.

Consider “MNAPLLTQDTKRTLAWIAVAVAFLALLKLLAPTLTPFVFAGILSYILHPGVEWLQRHRVPRVLGVFLMILLLTVVAVALMLLILAVLQREIPAIREQLPGMLSKLNAAVTPRLAEMGVHVRFDFPGLRKLLTEQLAASPEDVMSTALNYLRVSGSAAVQVLGIVFLVPIVMFYLLMDWNMLIRRLEGAVPRRWISKTRELAAETDGLLSQYLRGQIIVMLVLAAYYSAGLALAGFDVALPIGIFTGLAVFIPYIGFGIGLILAILSALLQFGNLYGLLAVAVVYGVGQVLEGFYLTPRLVGERIGLHPLAVILALLAFGQLFGFFGILLALPISAVLLVGLRQIRQLYLGSKLYRD”, for which the protein production result is listed as “failed”.

On to “MNAVGLVAFATVGSLKAIDADFDVLGVAVLGVLTALGGGATRDVLVGSVPAMLQSTTDVGFALAGVVVAVVVARRVGTEVLAHPVVDVPDAVGLAAFAASGALVGVGADVSPFGVVVLGTTTGVGGGLVSDVLLQRVPFVLTEDLYATCAIAGSTVLWVATASGLGATIAAAAGAGVTLAVRLLAIRFEWALPTVRLNAPA”, for which the protein production entry is “failed”.
